Data published in publication PMC10372118.

Molecular target: truncated human ACE2 (residues 19-613 with a C-terminal AviTag and 6xHis-tag), biotinylated (human) (UniProt Q9BYF1)
Assay: BLI

SARS-CoV-2 ancestral receptor-binding domain (RBD), recombinant (from UniProt P0DTC2) (domain or fragment)
t1/2: 1.39 min
